The target of assay [1] is KEAP1 (wild-type full-length), His-tagged (human) (UniProt Q14145). Kind of assay: AlphaScreen; 307.2 nM FLAG-NRF2, 150 nM His-KEAP1; signal against NRF2 only; control for I86V. On the technique in general: Bead proximity is the source of the signal in Alpha formats.
The target is the same in assay [2]. Kind of assay: AlphaScreen; mean over 9.6, 19.2 and 38.4 nM NRF2; 150 nM His-KEAP1.
The target is the same in assay [3]. The assay is described as follows: AlphaScreen; 2.4 nM FLAG-NRF2, 150 nM His-KEAP1; signal against NRF2 only; control for I28V.
The target is the same in assay [4]. Kind of assay: AlphaScreen; 76.8 nM FLAG-NRF2, 150 nM His-KEAP1; signal against NRF2 only; control for I86V.
The target is the same in assay [5]. Kind of assay: AlphaScreen; 1228.8 nM FLAG-NRF2, 150 nM His-KEAP1; signal against NRF2 only; control for I86V.
For assay [6] the target is unchanged. Kind of assay: AlphaScreen; 19.2 nM FLAG-NRF2, 150 nM His-KEAP1; Repeat 1 (same value as in Table 26).
The target is the same in assay [7]. Kind of assay: AlphaScreen; 4.8 nM FLAG-NRF2, 150 nM His-KEAP1; Rep 3; control for I86V.
For assay [8] the target is unchanged. The assay is described as follows: AlphaScreen; NRF2 wt isoform 1 76.8 nM, KEAP1 150 nM; signal against NRF2-only control; control for Q75R.
The target is the same in assay [9]. The assay is described as follows: AlphaScreen; FLAG-NRF2 wt isoform 1 38.4 nM, His-KEAP1 150 nM; Repeat 1; positive control for Q75R.
For assay [10] the target is unchanged. The assay is described as follows: AlphaScreen; FLAG-NRF2 wt isoform 1 76.8 nM, His-KEAP1 150 nM; Rep 2; positive control for Q75R.
For assay [11] the target is unchanged. Kind of assay: AlphaScreen; 9.6 nM FLAG-NRF2, 150 nM His-KEAP1; Repeat 2 (same value as in Table 26).
Assay [12] shares this target. The assay is described as follows: AlphaScreen; NRF2 wt isoform 1 38.4 nM, KEAP1 150 nM; signal against NRF2-only control; control for I86V.
Assay [13] has the same target. The assay is described as follows: AlphaScreen; 19.2 nM FLAG-NRF2, 150 nM His-KEAP1; Rep 3; control for I86V.
Assay [14] has the same target. The assay is described as follows: AlphaScreen; FLAG-NRF2 Q75R 9.6 nM, His-KEAP1 150 nM; Repeat 1.
Assay [15] has the same target. The assay is described as follows: AlphaScreen; FLAG-NRF2 Q75R 307.2 nM, His-KEAP1 150 nM; Rep 2.
Assay [16] has the same target. Kind of assay: AlphaScreen; FLAG-NRF2 I86V 4.8 nM, His-KEAP1 150 nM; Rep 1.
Assay [17] has the same target. The assay is described as follows: AlphaScreen; NRF2 I86V 153.6 nM, KEAP1 150 nM; signal against NRF2-only control.
For assay [18] the target is unchanged. The assay is described as follows: AlphaScreen; FLAG-NRF2 I86V 9.6 nM, His-KEAP1 150 nM; Rep 3.
For assay [19] the target is unchanged. The assay is described as follows: AlphaScreen; FLAG-NRF2 I86V 1228.8 nM, His-KEAP1 150 nM; Rep 2.
The target is the same in assay [20]. The assay is described as follows: AlphaScreen; FLAG-NRF2 I86V 76.8 nM, His-KEAP1 150 nM; Rep 2.
Assay [21] has the same target. Kind of assay: AlphaScreen; 1228.8 nM FLAG-NRF2, 150 nM His-KEAP1; Rep 2.
Assay [22] shares this target. The assay is described as follows: AlphaScreen; 38.4 nM FLAG-NRF2, 150 nM His-KEAP1; Repeat 2 (same value as in Table 27).
For assay [23] the target is unchanged. The assay is described as follows: AlphaScreen; 76.8 nM FLAG-NRF2, 150 nM His-KEAP1; Rep 1.
The target is the same in assay [24]. Kind of assay: AlphaScreen; 19.2 nM FLAG-NRF2, 150 nM His-KEAP1; Rep 2.
For assay [25] the target is unchanged. Kind of assay: AlphaScreen; 19.2 nM FLAG-NRF2, 150 nM His-KEAP1; against wild-type NRF2 isoform 1 = 100%.
For assay [26] the target is unchanged. Kind of assay: AlphaScreen; 2.4 nM FLAG-NRF2, 150 nM His-KEAP1; signal against NRF2 only.
Assay [27] shares this target. The assay is described as follows: AlphaScreen; 9.6 nM FLAG-NRF2, 150 nM His-KEAP1; against wild-type NRF2 isoform 1 = 100%.

Changes are numbered by the printed parent chain. Numbers in names are those of the source.

Sequence of KEAP1 (wild-type full-length), His-tagged (human) (Q14145 2-624 limits assumed): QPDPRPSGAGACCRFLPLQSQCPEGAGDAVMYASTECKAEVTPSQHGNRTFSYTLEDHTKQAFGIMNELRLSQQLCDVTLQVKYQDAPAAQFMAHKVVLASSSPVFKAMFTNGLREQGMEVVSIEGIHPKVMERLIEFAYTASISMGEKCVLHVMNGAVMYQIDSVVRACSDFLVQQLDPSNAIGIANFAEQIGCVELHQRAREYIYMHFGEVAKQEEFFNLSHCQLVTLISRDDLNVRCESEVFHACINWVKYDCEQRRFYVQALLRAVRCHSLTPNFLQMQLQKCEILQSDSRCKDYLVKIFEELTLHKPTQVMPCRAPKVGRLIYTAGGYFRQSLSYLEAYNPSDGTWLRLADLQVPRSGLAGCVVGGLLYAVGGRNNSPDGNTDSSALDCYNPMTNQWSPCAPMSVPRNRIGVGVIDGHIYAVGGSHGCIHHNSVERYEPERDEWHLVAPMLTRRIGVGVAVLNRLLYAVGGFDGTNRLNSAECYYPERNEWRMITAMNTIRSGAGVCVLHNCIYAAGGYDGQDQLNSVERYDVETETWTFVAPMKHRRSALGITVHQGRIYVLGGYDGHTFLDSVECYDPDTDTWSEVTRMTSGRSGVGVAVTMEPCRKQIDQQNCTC

B1: NRF2 isoform 1 (wild-type full-length), FLAG-tagged (protein)
chain: MMDLELPPPGLPSQQDMDLIDILWRQDIDLGVSREVFDFSQRRKEYELEKQKKLEKERQEQLQKEQEKAFFAQLQLDEETGEFLPIQPAQHIQSETSGSANYSQVAHIPKSDALYFDDCMQLLAQTFPFVDDNEVSSATFQSLVPDIPGHIESPVFIATNQAQSPETSVAQVAPVDLDGMQQDIEQVWEELLSIPELQCLNIENDKLVETTMVPSPEAKLTEVDNYHFYSSIPSMEKEVGNCSPHFLNAFEDSFSSILSTEDPNQLTVNSLNSDATVNTDFGDEFYSAFIAEPSISNSMPSPATLSHSLSELLNGPIDVSDLSLCKAFNQNHPESTAEFNDSDSGISLNTSPSVASPEHSVESSSYGDTLLGLSDSEVEELDSAPGSVKQNGPKTPVHSSGDMVQPLSPSQGQSTHVHDAQCENTPEKELPVSPGHRKTPFTKDKHSSRLEAHLTRDELRAKALHIPFPVEKIINLPVVDFNEMMSKEQFNEAQLALIRDIRRRGKNKVAAQNCRKRKLENIVELEQDLDHLKDEKEKLLKEKGENDKSLHLLKKQLSTLYLEVFSMLRDEDGKPYSPSEYSLQQTRDGNVFLVPKSKKPDVKKN
For the molecule B1, the S/N in [1] stood at 1.5; in assay [3], 2.2; in [4] it was 2.4; in assay [5], 1; in assay [8] it was 2.5; in assay [12], 3. In assay [2], this molecule returned an Average Binding of 100%. For the same molecule, the A-counts in [6] stood at 1980 A-counts; in [7] it was 1860 A-counts; in assay [11], 1640 A-counts; in [13], 3040 A-counts. In addition, the A-counts (NRF2 plus KEAP1) was 1480 A-counts in assay [9] and 1420 A-counts in assay [10].

B2: NRF2 isoform 1 (Q75R full-length), FLAG-tagged (protein)
chain: B1 chain with Q75R
With B2, the A-counts (NRF2 plus KEAP1) was determined as 1180 A-counts in [14] and 1020 A-counts in assay [15].

B3: NRF2 isoform 1 (I86V full-length), FLAG-tagged (protein)
chain: B1 chain with I86V
Turning to B3, the A-counts (NRF2 plus KEAP1) in assay [16] came out at 2170 A-counts; in assay [18] it was 2860 A-counts; in assay [19], 1580 A-counts; in assay [20], 2800 A-counts. The molecule further showed a S/N in [17] of 2.

B4: NRF2 isoform 1 (I28V full-length), FLAG-tagged (protein)
chain: B1 chain with I28V
In the case of B4, the A-counts amounted to 1030 A-counts in assay [21], 1680 A-counts in assay [22], 1560 A-counts in assay [23] and 1700 A-counts in [24]. In addition, the Binding Percentage (%) in [25] was 68.3%; in [27], 77.6%. For the same molecule, the S/N in assay [26] came out at 2.2.

(Values after US20250352667A1.)
